From the Human Domainome abundance scans (Beltran et al. 2025)
± gives the uncertainty stated by the source.

B1: Myocardin-related transcription factor A, residues 341 to 383; numbered along this chain, Q969V6 (parent)
chain: GALPANLDDMKVAELKQELKLRSLPVSGTKTELIERLRAYQDQ

Variants of: B1
Assay: abundance fitness (aPCA) (normalised: wild type 0, dead -1); higher = more abundant; growth selection in yeast, the domain comes from the species named
Settings: Homo sapiens

Row | Variant | abundance fitness
1 | GALPANLDDMKVAELKQELKLKSLPVSGTKTELIERLRAYQDQ [R22K] | -0.318 ± 0.14
2 | GALPANLDDMKVAELKQELKLASLPVSGTKTELIERLRAYQDQ [R22A] | -0.099 ± 0.16
3 | GALPANLDDMKVAELKQELKLMSLPVSGTKTELIERLRAYQDQ [R22M] | -0.229 ± 0.18
4 | GALPANLDDMKVAELKQELKLLSLPVSGTKTELIERLRAYQDQ [R22L] | -0.223 ± 0.1
5 | GALPANLDDMKVAELKQELKLESLPVSGTKTELIERLRAYQDQ [R22E] | -0.163 ± 0.11
6 | GALPANLDDMKVAELKQELKLDSLPVSGTKTELIERLRAYQDQ [R22D] | -0.327 ± 0.22
7 | GALPANLDDMKVAELKQELKLCSLPVSGTKTELIERLRAYQDQ [R22C] | -0.178 ± 0.12
8 | GALPANLDDMKVAELKQELKLPSLPVSGTKTELIERLRAYQDQ [R22P] | -0.561 ± 0.25
9 | GALPANLDDMKVAELKQELKLNSLPVSGTKTELIERLRAYQDQ [R22N] | -0.47 ± 0.17
10 | GALPANLDDMKVAELKQELKLQSLPVSGTKTELIERLRAYQDQ [R22Q] | -0.079 ± 0.088
11 | GALPANLDDMKVAELKQELKLWSLPVSGTKTELIERLRAYQDQ [R22W] | -0.572 ± 0.16
12 | GALPANLDDMKVAELKQELKLVSLPVSGTKTELIERLRAYQDQ [R22V] | -0.277 ± 0.094
13 | GALPANLDDMKVAELKQELKLGSLPVSGTKTELIERLRAYQDQ [R22G] | -0.54 ± 0.096
14 | GALPANLDDMKVAELKQELKLSSLPVSGTKTELIERLRAYQDQ [R22S] | -0.561 ± 0.16
15 | GALPANLDDMKVAELKQELKLTSLPVSGTKTELIERLRAYQDQ [R22T] | -0.301 ± 0.2
16 | GALPANLDDMKVAELKQELKLHSLPVSGTKTELIERLRAYQDQ [R22H] | -0.232 ± 0.096
17 | GALPANLDDMKVAELKQELKLFSLPVSGTKTELIERLRAYQDQ [R22F] | -0.816 ± 0.41
18 | GALPANLDDMKVAELKQELKLRSLPCSGTKTELIERLRAYQDQ [V26C] | -0.223 ± 0.18
19 | GALPANLDDMKVAELKQELKLRSLPQSGTKTELIERLRAYQDQ [V26Q] | 0.155 ± 0.096
20 | GALPANLDDMKVAELKQELKLRSLPNSGTKTELIERLRAYQDQ [V26N] | -0.466 ± 0.17

Row | Variant | abundance fitness
21 | GALPANLDDMKVAELKQELKLRSLPHSGTKTELIERLRAYQDQ [V26H] | -0.265 ± 0.15
22 | GALPANLDDMKVAELKQELKLRSLPKSGTKTELIERLRAYQDQ [V26K] | -0.195 ± 0.14
23 | GALPANLDDMKVAELKQELKLRSLPYSGTKTELIERLRAYQDQ [V26Y] | -0.031 ± 0.23
24 | GALPANLDDMKVAELKQELKLRSLPRSGTKTELIERLRAYQDQ [V26R] | -0.129 ± 0.067
25 | GALPANLDDMKVAELKQELKLRSLPSSGTKTELIERLRAYQDQ [V26S] | -0.035 ± 0.071
26 | GALPANLDDMKVAELKQELKLRSLPESGTKTELIERLRAYQDQ [V26E] | 0.168 ± 0.082
27 | GALPANLDDMKVAELKQELKLRSLPWSGTKTELIERLRAYQDQ [V26W] | -0.538 ± 0.24
28 | GALPANLDDMKVAELKQELKLRSLPLSGTKTELIERLRAYQDQ [V26L] | 0.229 ± 0.071
29 | GALPANLDDMKVAELKQELKLRSLPMSGTKTELIERLRAYQDQ [V26M] | -0.032 ± 0.074
30 | GALPANLDDMKVAELKQELKLRSLPGSGTKTELIERLRAYQDQ [V26G] | -0.038 ± 0.12
31 | GALPANLDDMKVAELKQELKLRSLPASGTKTELIERLRAYQDQ [V26A] | 0.18 ± 0.082
32 | GALPANLDDMKVAELKQELKLRSLPFSGTKTELIERLRAYQDQ [V26F] | -0.033 ± 0.12
33 | GALPANLDDMKVAELKQELKLRSLPPSGTKTELIERLRAYQDQ [V26P] | 0.191 ± 0.084
34 | GALPANLDDMKVAELKQELKLRSLPVRGTKTELIERLRAYQDQ [S27R] | -0.186 ± 0.064
35 | GALPANLDDMKVAELKQELKLRSLPVPGTKTELIERLRAYQDQ [S27P] | -0.08 ± 0.19
36 | GALPANLDDMKVAELKQELKLRSLPVMGTKTELIERLRAYQDQ [S27M] | -0.286 ± 0.11
37 | GALPANLDDMKVAELKQELKLRSLPVGGTKTELIERLRAYQDQ [S27G] | -0.012 ± 0.075
38 | GALPANLDDMKVAELKQELKLRSLPVDGTKTELIERLRAYQDQ [S27D] | 0.11 ± 0.097
39 | GALPANLDDMKVAELKQELKLRSLPVLGTKTELIERLRAYQDQ [S27L] | -0.376 ± 0.16
40 | GALPANLDDMKVAELKQELKLRSLPVKGTKTELIERLRAYQDQ [S27K] | -0.196 ± 0.15

Row | Variant | abundance fitness
41 | GALPANLDDMKVAELKQELKLRSLPVWGTKTELIERLRAYQDQ [S27W] | -0.115 ± 0.091
42 | GALPANLDDMKVAELKQELKLRSLPVEGTKTELIERLRAYQDQ [S27E] | 0.043 ± 0.1
43 | GALPANLDDMKVAELKQELKLRSLPVVGTKTELIERLRAYQDQ [S27V] | -0.251 ± 0.11
44 | GALPANLDDMKVAELKQELKLRSLPVQGTKTELIERLRAYQDQ [S27Q] | -0.424 ± 0.26
45 | GALPANLDDMKVAELKQELKLRSLPVTGTKTELIERLRAYQDQ [S27T] | -0.196 ± 0.23
46 | GALPANLDDMKVAELKQELKLRSLPVAGTKTELIERLRAYQDQ [S27A] | 0.181 ± 0.14
47 | GALPANLDDMKVAELKQELKLRSLPVCGTKTELIERLRAYQDQ [S27C] | -0.201 ± 0.1
48 | GALPANLDDMKVAELKQELKLRSLPVYGTKTELIERLRAYQDQ [S27Y] | -0.136 ± 0.21
49 | GALPANLDDMKVAELKQELKLRSHPVSGTKTELIERLRAYQDQ [L24H] | -0.979 ± 0.18
50 | GALPANLDDMKVAELKQELKLRSCPVSGTKTELIERLRAYQDQ [L24C] | -0.385 ± 0.091
51 | GALPANLDDMKVAELKQELKLRSAPVSGTKTELIERLRAYQDQ [L24A] | -0.27 ± 0.088
52 | GALPANLDDMKVAELKQELKLRSGPVSGTKTELIERLRAYQDQ [L24G] | -0.471 ± 0.077
53 | GALPANLDDMKVAELKQELKLRSPPVSGTKTELIERLRAYQDQ [L24P] | -0.639 ± 0.13
54 | GALPANLDDMKVAELKQELKLRSQPVSGTKTELIERLRAYQDQ [L24Q] | -0.07 ± 0.13
55 | GALPANLDDMKVAELKQELKLRSRPVSGTKTELIERLRAYQDQ [L24R] | -0.436 ± 0.074
56 | GALPANLDDMKVAELKQELKLRSDPVSGTKTELIERLRAYQDQ [L24D] | -0.835 ± 0.19
57 | GALPANLDDMKVAELKQELKLRSVPVSGTKTELIERLRAYQDQ [L24V] | -0.342 ± 0.075
58 | GALPANLDDMKVAELKQELKLRSWPVSGTKTELIERLRAYQDQ [L24W] | -0.751 ± 0.13
59 | GALPANLDDMKVAELKQELKLRSYPVSGTKTELIERLRAYQDQ [L24Y] | -1.02 ± 0.2
